The source of these data is US20030180296A1 (Human Genome Sciences, published 2003).

The target in test [1] is T1, TR7-Fc fusion protein (human, UniProt O14763 52-184).
T1 construct: also called TR7-Fc receptor; TRAILR2; not shown: Fc region
As to the kind of experiment: SPR (BIAcore 2000), TR7-Fc amine-coupled on CM5 chip, 1:1 Langmuir model, mean of three experiments; second lot. As to the method: (§1) TR7-Fc and TR2-Fc were immobilized on individual flow cells of a BIAcore CM5 sensor chip (BIAcore, Cat # BR-1000-14). Amine coupling (BIAcore, Cat # BR-1000-50) was used to covalently bind each receptor to the dextran matrix on the sensor chip. The optimal pH for this coupling was analyzed using preconcentration experiments ranging from pH 4-7 and was determined to be pH 4.0 based on the slope of the binding. The actual coupling was performed using the manual injection mode. A target level of 200 relative units (RU) was set as the goal for both flow cells. A response of 1000 RU correlates to a change in surface concentration of about 1 ng/mm² for proteins. The molecular weight of the TR7 and TR2 fusion proteins was nearly identical. The concentration of both receptors for immobilization was 5 μg/ml in 10 mM acetate, pH 4.0 (BIAcore, Cat # BR-1003-49). The entire experiment was performed at a flow rate of 5 μL/min. Contact time for the N-ethyl-N′-(3-dimethylaminoprolpyl)carbodiimide hydrochloride/Ethanolamine hydrochloride-NaOH, pH 8.5 (EDC/NHS) injection was 3 minutes. The ethanolamine was injected for 3 minutes.
(§2) Analysis of CM005G08 kinetics was performed using the BIAcore 2000 instrument with the 2000 control software, version 3.1.1. […] The off rate of CM005G08 was determined by washing the complex in the presence of HBS-EP buffer for 10 minutes. […]
Background: SPR reads the build-up and loss of mass on a sensor chip optically.

The target of test [2] is T1, TR7-Fc fusion protein. Kind of test: SPR (BIAcore 2000), TR7-Fc amine-coupled on CM5 chip, 1:1 Langmuir model, mean of three experiments; first lot. As to the method: as §1, §2
Test [3] addresses T1, TR7-Fc fusion protein. As to the kind of experiment: competition ELISA, inhibition of biotinylated TRAIL binding to captured TR7-Fc; second of two lots. How it is done: (§3) Goat anti-human Fc is diluted to 0.1 micrograms/ml in coating buffer. An Immulon 4 microplate is coated with 100 microliters per well of the Goat anti-human Fc solution and incubated overnight at 4° C. The coating solution is decanted from the plate, and blocking solution is dispensed at 200 microliters per well. The plate is incubated at room temperature for 1 hour. After the 1 hour incubation period, the blocking solution is decanted from the plate and 1 microgram/mL of TR7-Fc is dispensed at 100 microliters/well and incubated for 2 hours at room temperature. After the incubation, the plate is washed five times manually using a Wheaton manifold.
(§4) Antibodies corresponding to scFvs of the present invention are (previously) prepared in a low binding dilution plate using diluent. The antibodies are prepared in duplicate and are diluted from the stock concentration with 2.5 fold dilutions for the 7 subsequent wells. If a purified form of the antibody is available, the starting concentration is 5 micrograms/mL. The positive control (TR7-Fc) is diluted from 5 micrograms/mL. 100 microliters is transferred into the ELISA plate and pre-incubated for 30 minutes at room temperature. […]
(§5) After the one-hour incubation, the plate is decanted and washed with PBST five times and blotted. […] The plate is immediately read at 450 nm using the spectrometer from Molecular Devices.
For orientation: An ELISA detects its analyte on a solid surface through an enzyme-linked reagent.

Test [4] addresses T1, TR7-Fc fusion protein. Kind of test: competition ELISA, inhibition of biotinylated TRAIL binding to captured TR7-Fc; first of two lots. How it is done: as §3, §4, §5
The target of test [5] is T1, TR7-Fc fusion protein. Kind of test: competition ELISA, inhibition of biotinylated TRAIL binding to captured TR7-Fc; unlabelled TRAIL as competitor. How it is done: as §3, §4, §5

B1: whole IgG1 antibody comprising the VH and VL domains of the CM005G08 scFv (antibody, V domains shown)
VH: EVQLVQSGGGVERPGGSLRLSCAASGFTFDDYGMSWVRQAPGKGLEWVSGINWNGGSTGYADSVKGRVTISRDNAKNSLYLQMNSLRAEDTAVYYCAKILGAGRGWYFDLWGKGTTVTVSS
VL: SSELTQDPAVSVALGQTVRITCQGDSLRSYYASWYQQKPGQAPVLVIYGKNNRPSGIPDRFSGSSSGNTASLTITGAQAEDEADYYCNSRDSSGNHVVFGGGTKLTVLG
notes: 3.75 ug/mL = 25 nM implies a whole IgG; also called CM005G08 (IgG1 format); anti-TR7 antibody
Regarding B1, the Kd with TR7-Fc fusion protein [1] stood at 0.33 nM; with TR7-Fc fusion protein [2] it was 0.25 nM. The values for the off-rate (koff) in the test with TR7-Fc fusion protein [1] and with TR7-Fc fusion protein [2] were 0.00268 s⁻¹ and 0.00266 s⁻¹, respectively. Moreover, the IC50 came to 6.89 nM with TR7-Fc fusion protein [3] and 5.3 nM with TR7-Fc fusion protein [4].

B2: TRAIL (ligand)
chain: TSEETISTVQEKQQNISPLVRERGPQRVAAHITGTRGRSNTLSSPNSKNEKALGRKINSWESSRSGHSFLSNLHLRNGELVIHEKGFYYIYSQTYFRFQEEIKENTKNDKQMVQYIYKYTSYPDPILLMKSARNSCWSKDAEYGLYSIYQGGIFELKENDRIFVSVTNEHLIDMDHEASFFGAFLVG
notes: also called soluble TRAIL ligand; AIM-I
As for B2, in the test with TR7-Fc fusion protein [5], the IC50 stood at 1.77 nM.

The term Kd denotes the constant that tells how readily two partners part at equilibrium. Usually koff stands for the rate constant with which the complex falls apart. For orientation: IC50 means the concentration needed to halve the response being measured. High values mean lower potency, low ones higher potency.
